Assay results as given in US20210317479, “NUCLEIC ACID ASSEMBLIES FOR USE IN TARGETED DELIVERY” (The Broad Institute, Inc., published 2021).

B1: PCSK9 sgRNA with 3' staple extension (PB84), folded in DNA pentagonal bipyramid (ssRNA)
RNA: GGCUGAUGAGGCCGCACAUGGUUUUAGAGCUAUGCUGUUCUUCGGAACAGCAUAGCAAGUUAAAAUAAGGCUAGUCCGUUAUCAACUUGAAAAAGUGGCACCGAGUCGGUGCAAAAAUCACCCAGAAACGCUGGUGAAAGUGUAUGAGUAUUCAACAUUUCCGUGUCGCCCUUGUUUUUGCUGCAG
B2: EGFP sgRNA-staple 3, in DX tile with HDR DNA scaffold (ssRNA)
RNA: GCUGAAGCACUGCACGCCGUGUUUUAGAGCUAUGCUGUUGAAAAACAGCAUAGCAAGUUAAAAUAAGGCUAGUCCGUUAUCAACUUGAAAAAGUGGCACCGAGUCGGUGCUUUUUCUGGCCCACCCUCAGCCGCUACCCCGACCACAUGAGCCCGUGCC

Columns and labels:
SpCas9 [1] = biological target: T1, SpCas9 (Streptococcus pyogenes, UniProt Q99ZW2 Q99ZW2:1-1368); assay: EMSA; 5x molar Cas9 shifted nanoparticle band into the well; settings: sgRNA whose 3' extension hybridises to DNA scaffold
T1 sequence (Q99ZW2 whole entry, one chain of several): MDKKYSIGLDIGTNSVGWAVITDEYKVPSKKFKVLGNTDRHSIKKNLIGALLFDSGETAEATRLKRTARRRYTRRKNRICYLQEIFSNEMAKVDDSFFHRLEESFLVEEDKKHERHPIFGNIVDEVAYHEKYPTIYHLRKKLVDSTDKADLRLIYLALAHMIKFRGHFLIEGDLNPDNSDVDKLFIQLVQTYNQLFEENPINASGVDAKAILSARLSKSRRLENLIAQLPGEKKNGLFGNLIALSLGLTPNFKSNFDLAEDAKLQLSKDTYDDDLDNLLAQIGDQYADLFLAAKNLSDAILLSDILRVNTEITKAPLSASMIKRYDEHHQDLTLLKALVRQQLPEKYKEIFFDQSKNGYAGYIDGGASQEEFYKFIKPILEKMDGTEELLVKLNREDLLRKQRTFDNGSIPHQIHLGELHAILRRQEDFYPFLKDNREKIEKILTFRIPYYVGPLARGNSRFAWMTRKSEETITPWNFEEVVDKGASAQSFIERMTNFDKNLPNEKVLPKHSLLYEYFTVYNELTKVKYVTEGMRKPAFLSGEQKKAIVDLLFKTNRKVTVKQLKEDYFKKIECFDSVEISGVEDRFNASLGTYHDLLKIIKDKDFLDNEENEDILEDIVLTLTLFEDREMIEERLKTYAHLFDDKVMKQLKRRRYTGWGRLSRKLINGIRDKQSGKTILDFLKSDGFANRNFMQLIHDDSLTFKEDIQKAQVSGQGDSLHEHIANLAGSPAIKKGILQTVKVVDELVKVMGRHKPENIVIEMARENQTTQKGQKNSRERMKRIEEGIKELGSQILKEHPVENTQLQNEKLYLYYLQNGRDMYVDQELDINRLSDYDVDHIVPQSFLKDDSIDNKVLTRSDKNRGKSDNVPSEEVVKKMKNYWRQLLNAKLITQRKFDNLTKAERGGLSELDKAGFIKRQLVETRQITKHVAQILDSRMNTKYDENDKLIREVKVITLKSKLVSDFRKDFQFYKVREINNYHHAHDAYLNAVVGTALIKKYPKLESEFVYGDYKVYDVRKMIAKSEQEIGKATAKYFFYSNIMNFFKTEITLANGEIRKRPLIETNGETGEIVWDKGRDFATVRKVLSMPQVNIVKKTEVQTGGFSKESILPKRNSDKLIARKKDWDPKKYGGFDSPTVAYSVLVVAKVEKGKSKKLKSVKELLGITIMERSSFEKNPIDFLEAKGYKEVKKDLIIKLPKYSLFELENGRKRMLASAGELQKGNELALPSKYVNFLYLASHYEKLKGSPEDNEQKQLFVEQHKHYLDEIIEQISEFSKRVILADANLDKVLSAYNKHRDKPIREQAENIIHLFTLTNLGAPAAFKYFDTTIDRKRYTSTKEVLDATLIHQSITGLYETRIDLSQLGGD
Procedure: The DNA was amplified and purified by Qiagen, and transcribed using the NEB T7 HiScribe kit modified for short RNA production, and purified by PAGE purification. It was then folded with 50 mM HEPES-KOH pH 7.5, 300 mM KCl following the RNA/DNA hybrid folding protocol. The excess staples were purified away from the PB84 with a 100 kDa MWCO filter. A 2% high resolution agarose gel with 1×TAE buffer and 4 mM Mg-acetate was run at 4 C in the cold room at 65V for 180 minutes.
It was observed that the nanoparticle with the RNA staple presented a band at the same size as the all-DNA staple nanoparticle.

SpCas9 [2] = biological target: T1, SpCas9; assay: EMSA; DX tile band shifted toward well on annealing with Cas9; sgRNA maintained after RNase H; settings: sgRNA fused to central RNA staple of DX tile
Procedure: Dx-tiles were made either containing the Gint or broccoli aptamers. To prepare the folded DX-tiles, the components (e.g., DNA scaffold, two flanking/end staples encoding either the Gint (i.e., Gint4.T and Gint21.T) or broccoli aptamers, and central staple) were mixed in equimolar concentrations and allowed to anneal over 2 hours from 95 C to 25 C. The resulting structures were visualized by gel electrophoresis.
Several bands were originally visualized, showing impurities in the production. […] Given that staple 2 spans across the region targeted by the sgRNA and could therefore contribute to misfolding, in a repeat experiment, staple 2 was left out of the folding mixture. This yielded higher folding. Upon addition and annealing with Cas9, the DX tile band was closer to the well on the gel. Addition of RNase H both with and without Cas9 released the HDR template.

| Binder | binding result (SpCas9 [1]) | binding result (SpCas9 [2]) |
| --- | --- | --- |
| B1 | binds |  |
| B2 |  | binds |
